{
  "source": "patent US5935927A",
  "about": "“Compositions and methods for stimulating amyloid removal in amyloidogenic diseases using advanced glycosylation endproducts” (The Picower Institute For Medical Research, priority 1996, dated 1999)",
  "key": {"soluble βAP": {"target": "T1, soluble βAP (Homo sapiens, UniProt P05067)", "T1 construct": "Co-incubation of 400 μM βAP 1-28 in 0.1M sodium acetate, pH 7.0, with 100 mM glucose; purchased Bachem (Torrance, Calif.); host or cells: chemical synthesis", "T1 sequence (P05067 672-699)": "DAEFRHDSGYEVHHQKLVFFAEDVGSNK", "test": "Thioflavin-T fluorescence assay of βAP aggregation and seeding", "format": "biochemical", "details": "for effect on fluorescent aggregate formation of βAP: 400 μM βAP 1-28, 0.1M sodium acetate pH 7.0, 100 mM glucose, 0.05M aminoguanidine, FIG. 4; for spontaneous formation of Thioflavin-T fluorescent aggregates: FIG. 1", "from_the_text": "Aggregation and Seeding Reactions. Synthetic, HPLC-purified peptides representing the first 28 (βAP 1-28) and the first 40 amino acids (βAP 1-40) of the 42 amino acid βAP were obtained from Bachem (Torrance, Calif.). Aggregation of soluble βAP 1-28 or βAP 1-40 at different concentrations was initiated by addition of 0.1M sodium acetate (NaOAc) at the indicated pH (between 4.7 and 7.5) and continued for the indicated times. Quantitative aggregate formation with sub-millimolar βAP concentrations was detected using the procedure of LeVine (1992, Protein Science 2:404-410). Briefly, fluorescence of aggregates added to 10 μM Thioflavin-T (Aldrich)/50 mM potassium phosphate buffer, pH 6.0, was measured upon excitation at 450±5 nm and detection of emission at 482±10 mn on a Perkin Elmer LS-50B spectrofluorimeter. Where indicated, small amounts of pre-formed aggregates or \"nucleation seeds\" were added to the soluble βAP and aggregation initiated with 0.1M sodium acetate.\nGenerations of \"Seeds\". […] After incubation, protein concentrations of seed preparations were measured and adjusted with buffer to 150 μM final concentration. […] Lysines at positions 16 and 28 of βAP contain primary amino groups which may react with reducing sugars to generate advanced glycosylation endproducts of AGEs. Indicated amounts of glucose and/or aminoguanidine, a potent inhibitor of advanced glycation and crosslink formation (Brownlee et al., 1986, Science 232:1629-1632), were also added to solutions of βAP before sodium acetate in some experiments."}, "[1]": {"test_system": "insulin-producing β-cells of the adult pancreas", "details": "rat cells; Lorenzo et al. 1994; cited from earlier work"}, "[2]": {"test_system": "insulin-producing β-cells of the adult pancreas", "details": "human cells; Lorenzo et al. 1994; cited from earlier work"}},
  "note": "Like-named read-outs stand apart in the source and are kept apart here.",
  "data": [
    {"compound": "N=C(N)NN", "note": "[aminoguanidine]", "values": [
      {"measurement": "effect on fluorescent aggregate formation of βAP", "setting": "soluble βAP", "result": "can inhibit the AGE-enhanced aggregation of βAP"}
    ]},
    {"compound": "O=C[C@H](O)[C@@H](O)[C@H](O)[C@H](O)CO", "note": "[glucose]", "values": [
      {"measurement": "effect on fluorescent aggregate formation of βAP", "setting": "soluble βAP", "result": "stimulates fluorescent aggregate formation"}
    ]},
    {"compound": "human amylin fibrils: fibrils of the 37 amino acid islet amyloid polypeptide (IAPP), amylin (KCNTATCATQRLANFLVHSSNNFGAILSSTNVGSNTY; Islet amyloid polypeptide fibrils; UniProt P10997 34-70, looked up)", "values": [
      {"measurement": "toxicity to β-cells", "setting": "[1]", "result": "toxic"},
      {"measurement": "toxicity to β-cells", "setting": "[2]", "result": "toxic"}
    ]},
    {"compound": "βAP 1-28: synthetic peptide representing the first 28 amino acids of the 42 amino acid βAP", "values": [
      {"measurement": "spontaneous formation of Thioflavin-T fluorescent aggregates", "setting": "soluble βAP; 600 μM, pH 7.2", "result": "spontaneously and rapidly formed Thioflavin-T fluorescent aggregates within minutes"},
      {"measurement": "spontaneous formation of Thioflavin-T fluorescent aggregates", "setting": "soluble βAP; concentrations below 300 μM", "result": "aggregated very slowly with a considerable lag before fluorescent aggregates were measurable"}
    ]}
  ]
}
